Assay results from patent US20240425885.

Key:
Assay in all cases: cleavage_in_vitro
[1] = test system: T1, OMNI-122 (metagenomic, unknown); conditions: TXTL; PAM NRYTTTYN
T1 sequence: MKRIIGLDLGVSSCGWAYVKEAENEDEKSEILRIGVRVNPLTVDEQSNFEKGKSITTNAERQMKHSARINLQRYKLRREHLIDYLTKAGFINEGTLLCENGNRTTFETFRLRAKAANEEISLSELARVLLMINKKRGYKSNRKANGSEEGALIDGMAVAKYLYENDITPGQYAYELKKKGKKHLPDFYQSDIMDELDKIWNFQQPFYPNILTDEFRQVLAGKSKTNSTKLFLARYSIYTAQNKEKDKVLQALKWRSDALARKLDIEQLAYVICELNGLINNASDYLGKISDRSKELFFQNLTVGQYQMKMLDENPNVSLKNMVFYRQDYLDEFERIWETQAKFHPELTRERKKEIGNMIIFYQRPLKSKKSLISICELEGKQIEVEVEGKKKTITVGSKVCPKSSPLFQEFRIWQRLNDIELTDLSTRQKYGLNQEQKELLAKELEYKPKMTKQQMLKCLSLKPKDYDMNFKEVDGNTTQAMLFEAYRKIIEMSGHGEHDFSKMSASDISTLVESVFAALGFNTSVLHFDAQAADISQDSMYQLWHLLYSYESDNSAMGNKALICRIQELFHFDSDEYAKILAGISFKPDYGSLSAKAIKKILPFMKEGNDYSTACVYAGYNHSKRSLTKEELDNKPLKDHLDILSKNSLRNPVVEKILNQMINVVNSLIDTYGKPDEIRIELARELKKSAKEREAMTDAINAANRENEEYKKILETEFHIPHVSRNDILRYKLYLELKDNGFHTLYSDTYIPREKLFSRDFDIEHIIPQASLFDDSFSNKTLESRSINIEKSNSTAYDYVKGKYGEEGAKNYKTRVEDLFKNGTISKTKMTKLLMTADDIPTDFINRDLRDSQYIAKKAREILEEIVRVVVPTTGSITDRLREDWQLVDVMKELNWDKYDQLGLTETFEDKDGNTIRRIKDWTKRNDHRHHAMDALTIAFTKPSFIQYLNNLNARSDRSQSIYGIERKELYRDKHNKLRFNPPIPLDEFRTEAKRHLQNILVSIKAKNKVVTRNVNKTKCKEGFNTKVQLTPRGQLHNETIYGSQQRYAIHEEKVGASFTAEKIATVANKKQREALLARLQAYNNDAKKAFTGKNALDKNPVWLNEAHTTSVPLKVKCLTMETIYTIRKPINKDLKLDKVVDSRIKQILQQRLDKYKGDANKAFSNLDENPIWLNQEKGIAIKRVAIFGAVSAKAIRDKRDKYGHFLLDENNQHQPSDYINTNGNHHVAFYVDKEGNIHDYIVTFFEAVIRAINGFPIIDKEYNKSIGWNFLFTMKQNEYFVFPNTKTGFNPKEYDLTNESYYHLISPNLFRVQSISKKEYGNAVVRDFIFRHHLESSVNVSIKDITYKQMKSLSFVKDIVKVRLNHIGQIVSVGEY

[2] = test system: T2, OMNI-125 (metagenomic, unknown); conditions: TXTL; PAM NARNCCYN
T2 sequence: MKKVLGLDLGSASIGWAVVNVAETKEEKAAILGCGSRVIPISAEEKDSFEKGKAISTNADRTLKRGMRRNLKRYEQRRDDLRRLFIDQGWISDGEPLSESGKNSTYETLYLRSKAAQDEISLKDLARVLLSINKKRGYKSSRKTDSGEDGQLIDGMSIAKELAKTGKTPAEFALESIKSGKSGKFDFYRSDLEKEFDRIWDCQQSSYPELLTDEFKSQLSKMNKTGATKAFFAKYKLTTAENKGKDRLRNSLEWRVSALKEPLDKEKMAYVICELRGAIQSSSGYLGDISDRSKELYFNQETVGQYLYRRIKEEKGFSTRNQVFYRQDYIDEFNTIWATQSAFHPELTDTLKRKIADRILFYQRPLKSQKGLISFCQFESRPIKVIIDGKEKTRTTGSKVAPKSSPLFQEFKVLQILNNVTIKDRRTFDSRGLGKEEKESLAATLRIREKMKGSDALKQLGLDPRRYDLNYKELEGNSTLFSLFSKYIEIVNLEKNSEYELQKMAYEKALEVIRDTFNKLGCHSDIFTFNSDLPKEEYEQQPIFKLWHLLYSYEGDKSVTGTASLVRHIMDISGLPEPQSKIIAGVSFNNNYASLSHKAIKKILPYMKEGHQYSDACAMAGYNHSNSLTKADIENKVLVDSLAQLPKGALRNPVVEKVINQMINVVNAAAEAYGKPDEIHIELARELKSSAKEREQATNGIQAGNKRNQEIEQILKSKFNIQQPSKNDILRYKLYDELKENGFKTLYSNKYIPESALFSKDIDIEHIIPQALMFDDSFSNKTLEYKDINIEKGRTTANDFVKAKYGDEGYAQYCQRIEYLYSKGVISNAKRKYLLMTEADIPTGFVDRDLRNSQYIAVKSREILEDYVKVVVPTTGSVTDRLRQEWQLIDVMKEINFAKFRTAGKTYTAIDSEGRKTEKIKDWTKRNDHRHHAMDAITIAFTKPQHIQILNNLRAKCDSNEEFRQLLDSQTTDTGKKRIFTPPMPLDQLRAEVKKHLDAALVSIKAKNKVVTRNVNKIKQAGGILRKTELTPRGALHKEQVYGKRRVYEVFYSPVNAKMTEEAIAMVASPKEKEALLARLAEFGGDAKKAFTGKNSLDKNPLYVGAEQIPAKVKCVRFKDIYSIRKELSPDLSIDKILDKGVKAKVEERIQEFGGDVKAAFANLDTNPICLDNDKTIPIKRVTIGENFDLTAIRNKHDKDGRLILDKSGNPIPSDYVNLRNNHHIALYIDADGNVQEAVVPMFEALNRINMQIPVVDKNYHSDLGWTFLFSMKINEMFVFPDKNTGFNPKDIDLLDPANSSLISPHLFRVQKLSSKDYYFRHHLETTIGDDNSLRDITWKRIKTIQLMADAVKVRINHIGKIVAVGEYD

[3] = test system: T3, OMNI-123 (metagenomic, unknown); conditions: TXTL; PAM NNNSGYAA
T3 sequence: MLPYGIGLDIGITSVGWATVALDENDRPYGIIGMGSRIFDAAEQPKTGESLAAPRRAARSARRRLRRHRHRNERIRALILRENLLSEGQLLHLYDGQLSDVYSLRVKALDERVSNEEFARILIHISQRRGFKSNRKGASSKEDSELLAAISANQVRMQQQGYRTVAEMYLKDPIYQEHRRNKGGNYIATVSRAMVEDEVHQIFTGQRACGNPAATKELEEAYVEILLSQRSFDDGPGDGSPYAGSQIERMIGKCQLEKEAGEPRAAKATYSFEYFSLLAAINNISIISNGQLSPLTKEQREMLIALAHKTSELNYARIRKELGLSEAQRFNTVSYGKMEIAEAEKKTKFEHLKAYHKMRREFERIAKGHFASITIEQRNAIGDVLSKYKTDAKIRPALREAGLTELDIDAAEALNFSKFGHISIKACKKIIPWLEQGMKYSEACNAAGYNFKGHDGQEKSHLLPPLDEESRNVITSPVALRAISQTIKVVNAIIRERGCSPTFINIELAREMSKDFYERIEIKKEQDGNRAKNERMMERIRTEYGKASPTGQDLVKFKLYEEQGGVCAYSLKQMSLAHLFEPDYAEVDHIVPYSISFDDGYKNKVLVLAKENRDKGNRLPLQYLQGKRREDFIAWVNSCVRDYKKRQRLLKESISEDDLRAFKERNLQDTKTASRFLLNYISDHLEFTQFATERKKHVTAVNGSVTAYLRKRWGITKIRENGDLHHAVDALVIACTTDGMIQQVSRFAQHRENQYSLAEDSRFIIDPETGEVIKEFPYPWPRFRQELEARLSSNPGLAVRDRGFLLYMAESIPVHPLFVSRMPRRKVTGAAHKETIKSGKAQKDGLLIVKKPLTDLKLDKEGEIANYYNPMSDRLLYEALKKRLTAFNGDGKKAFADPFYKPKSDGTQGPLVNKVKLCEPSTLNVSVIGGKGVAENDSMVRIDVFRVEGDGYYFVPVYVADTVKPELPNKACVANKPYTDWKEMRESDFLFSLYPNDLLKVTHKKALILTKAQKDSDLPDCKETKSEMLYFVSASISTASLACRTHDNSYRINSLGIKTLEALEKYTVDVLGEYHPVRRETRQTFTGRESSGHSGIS

[4] = test system: OMNI-121 (metagenomic, unknown); conditions: TXTL; PAM NNAAAYNN
[5] = test system: T4, OMNI-126 (metagenomic, unknown); conditions: TXTL; PAM NNNNAARN
T4 sequence: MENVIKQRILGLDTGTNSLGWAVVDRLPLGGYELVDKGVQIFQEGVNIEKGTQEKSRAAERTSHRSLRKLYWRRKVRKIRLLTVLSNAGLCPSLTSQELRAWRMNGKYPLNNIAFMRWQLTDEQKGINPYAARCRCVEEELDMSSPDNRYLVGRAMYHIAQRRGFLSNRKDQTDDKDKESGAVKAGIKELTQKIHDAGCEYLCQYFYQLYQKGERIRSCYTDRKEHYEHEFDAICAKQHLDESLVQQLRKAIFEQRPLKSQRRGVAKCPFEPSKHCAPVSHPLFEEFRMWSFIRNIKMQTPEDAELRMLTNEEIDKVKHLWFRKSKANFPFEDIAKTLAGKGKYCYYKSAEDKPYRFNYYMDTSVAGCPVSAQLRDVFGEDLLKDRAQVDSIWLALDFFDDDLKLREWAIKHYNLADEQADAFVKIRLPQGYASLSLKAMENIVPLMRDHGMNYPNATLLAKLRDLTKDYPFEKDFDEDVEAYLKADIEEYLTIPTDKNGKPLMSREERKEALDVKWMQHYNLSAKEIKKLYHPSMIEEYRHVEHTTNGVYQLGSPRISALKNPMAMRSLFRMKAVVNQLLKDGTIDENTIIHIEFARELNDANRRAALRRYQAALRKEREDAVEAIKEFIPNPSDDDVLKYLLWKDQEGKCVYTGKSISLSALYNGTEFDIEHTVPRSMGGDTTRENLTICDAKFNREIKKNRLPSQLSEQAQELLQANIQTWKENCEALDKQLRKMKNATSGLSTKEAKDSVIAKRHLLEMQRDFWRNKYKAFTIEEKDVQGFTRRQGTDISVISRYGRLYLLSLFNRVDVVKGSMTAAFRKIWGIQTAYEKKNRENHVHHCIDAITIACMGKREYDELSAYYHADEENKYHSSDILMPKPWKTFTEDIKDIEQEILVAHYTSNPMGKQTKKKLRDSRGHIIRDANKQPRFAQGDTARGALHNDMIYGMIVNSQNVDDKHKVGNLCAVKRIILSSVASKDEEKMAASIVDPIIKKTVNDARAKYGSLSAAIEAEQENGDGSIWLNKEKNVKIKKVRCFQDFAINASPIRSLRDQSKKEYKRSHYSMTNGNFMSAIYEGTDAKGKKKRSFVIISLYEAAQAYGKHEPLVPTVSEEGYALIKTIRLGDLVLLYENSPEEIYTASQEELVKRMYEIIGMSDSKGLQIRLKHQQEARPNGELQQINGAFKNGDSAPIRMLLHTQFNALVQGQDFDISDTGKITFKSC

OMNI-121 (metagenomic, unknown), sequence (chain, as listed by the source): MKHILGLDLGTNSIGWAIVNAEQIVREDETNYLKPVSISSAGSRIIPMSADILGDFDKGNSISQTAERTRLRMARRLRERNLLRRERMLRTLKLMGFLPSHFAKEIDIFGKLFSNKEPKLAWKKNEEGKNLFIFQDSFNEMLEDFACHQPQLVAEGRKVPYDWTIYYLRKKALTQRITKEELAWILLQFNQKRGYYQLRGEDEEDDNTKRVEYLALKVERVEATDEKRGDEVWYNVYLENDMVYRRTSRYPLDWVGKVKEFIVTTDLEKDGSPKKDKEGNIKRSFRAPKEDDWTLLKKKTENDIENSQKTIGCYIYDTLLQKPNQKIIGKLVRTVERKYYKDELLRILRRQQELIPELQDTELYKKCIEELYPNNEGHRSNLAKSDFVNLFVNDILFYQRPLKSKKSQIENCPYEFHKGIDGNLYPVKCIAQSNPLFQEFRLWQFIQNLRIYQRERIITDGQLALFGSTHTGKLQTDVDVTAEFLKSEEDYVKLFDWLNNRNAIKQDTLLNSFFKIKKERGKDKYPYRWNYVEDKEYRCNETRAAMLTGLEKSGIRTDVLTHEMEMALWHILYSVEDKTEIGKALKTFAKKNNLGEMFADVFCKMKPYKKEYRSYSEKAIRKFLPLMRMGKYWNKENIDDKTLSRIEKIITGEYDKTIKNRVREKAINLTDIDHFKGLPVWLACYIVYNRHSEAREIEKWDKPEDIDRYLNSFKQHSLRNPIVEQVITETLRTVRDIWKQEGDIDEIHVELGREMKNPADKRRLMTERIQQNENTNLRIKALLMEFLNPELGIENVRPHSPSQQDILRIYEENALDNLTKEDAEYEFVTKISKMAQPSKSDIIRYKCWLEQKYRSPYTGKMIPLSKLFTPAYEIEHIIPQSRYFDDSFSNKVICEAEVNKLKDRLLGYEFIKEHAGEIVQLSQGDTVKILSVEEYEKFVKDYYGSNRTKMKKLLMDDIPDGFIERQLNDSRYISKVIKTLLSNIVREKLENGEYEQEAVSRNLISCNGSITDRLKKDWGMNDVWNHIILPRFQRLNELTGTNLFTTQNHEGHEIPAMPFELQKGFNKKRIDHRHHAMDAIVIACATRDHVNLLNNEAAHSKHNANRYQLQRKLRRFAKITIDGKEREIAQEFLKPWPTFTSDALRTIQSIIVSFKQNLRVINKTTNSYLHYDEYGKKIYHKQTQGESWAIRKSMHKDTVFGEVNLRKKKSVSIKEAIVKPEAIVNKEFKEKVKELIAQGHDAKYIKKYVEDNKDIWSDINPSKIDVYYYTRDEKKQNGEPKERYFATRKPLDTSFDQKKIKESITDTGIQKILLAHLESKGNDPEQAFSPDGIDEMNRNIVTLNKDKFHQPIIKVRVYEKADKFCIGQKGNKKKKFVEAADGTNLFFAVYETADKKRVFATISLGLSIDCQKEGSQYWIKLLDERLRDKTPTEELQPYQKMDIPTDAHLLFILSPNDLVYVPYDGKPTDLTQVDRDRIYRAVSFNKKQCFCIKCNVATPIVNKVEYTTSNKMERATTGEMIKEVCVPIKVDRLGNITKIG

Question: With “GGAAGAGCAGAGCCUUGGUCUCGUUGUGAAUUGCUUUCGAAAGAAGCAAUUCACAAUAAGGAUUAUUCCGUUGUGAAAACAUUUAAGAGAGUCCUUCGUCCUUCGGAGGAUUCUUUUUU / GGAAGAGCAGAGCCTTGGTCTCNNNNNNNN / NNNNNNNNGAGACCAAGGCTCTGCTCTTCC [T2 sgRNA 25 V1 ; T2 protospacer + 8N PAM library (pbPOS T2)]” as the sequence, how does the activity (1-depletion score) [1] read?
Answer: 0.84

Question: “GGAAGAGCAGAGCCUUGGUCUCGUUGUGAAUGGCUUUCGAAAUUGAAGCCAUUCACAAUAAGGAUUAUUCCGUUGUGAAAACAUUAAGAGCGGGUCGUGAGACUCGCUCUUCUGUGUUUAUUUUUU / GGAAGAGCAGAGCCTTGGTCTCNNNNNNNN / NNNNNNNNGAGACCAAGGCTCTGCTCTTCC [T2 sgRNA 27 V1 ; T2 protospacer + 8N PAM library (pbPOS T2)]” was tested. Which activity (1-depletion score) [2] did it give?
Answer: 0.95

Question: With “GGAAGAGCAGAGCCUUGGUCUCGUUAUAGUUCCCUGAUAGUGAAAACUAUGAGGUUGCUAUAAUAAGGUAGUAAACCGCAGAGCUCUAACGCCUCACAUUUGUGGGGCGUUAUCUCUUUUUUU / GGAAGAGCAGAGCCTTGGTCTCNNNNNNNN / NNNNNNNNGAGACCAAGGCTCTGCTCTTCC [T2 sgRNA 26 V1 ; T2 protospacer + 8N PAM library (pbPOS T2)]” as the sequence, how does the activity (1-depletion score) [3] read?
Answer: 0.95

Question: “GGAAGAGCAGAGCCUUGGUCUCGUUGUGAAUUGCUUGAAAUUCUUGAAAGAAUUUCAGCAAUUCACAAUAAGGAUUAUUCCGUUGUGAAAACAUUCAGGUUCCUGCCCUCGUCCUUUAACGGGGGCUUUUUU / GGAAGAGCAGAGCCTTGGTCTCNNNNNNNN / NNNNNNNNGAGACCAAGGCTCTGCTCTTCC [T2 sgRNA 24 V1 ; T2 protospacer + 8N PAM library (pbPOS T2)]” was tested. Which activity (1-depletion score) [4] did it give?
Answer: 0.91

Question: Which activity (1-depletion score) [5] does the source give for “GGAAGAGCAGAGCCUUGGUCUCGUUGUGGCUUGUUGAAGAAGAAAUUCUUCAACUUGUCACAAUAAGGCCCUUAAGGCCGAAGGUUGAAAAACCUAUGGCUCUACUUCGGUGGAGCCUUUUUU / GGAAGAGCAGAGCCTTGGTCTCNNNNNNNN / NNNNNNNNGAGACCAAGGCTCTGCTCTTCC [T2 sgRNA 28 V1 ; T2 protospacer + 8N PAM library (pbPOS T2)]” here?
Answer: 0.64
